From patent US20190359687A1 (Bayer, published 2019)

Legend:
[1] = molecular target: T1, human glycophorin A in the red blood cell membrane (human, UniProt P02724 20-150); assay: FACS, IgG
T1 construct: whole, on cells; used for intact RBC, isolated RBC membranes and transfected cells; the assay field tells which; also called GPA; hGPA
T1 sequence (looked up): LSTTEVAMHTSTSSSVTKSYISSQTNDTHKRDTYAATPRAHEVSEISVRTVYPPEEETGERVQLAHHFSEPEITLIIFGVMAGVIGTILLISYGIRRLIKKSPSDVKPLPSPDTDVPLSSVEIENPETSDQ
Protocol: (§1) The binding of the humanized variants to intact red blood cells (RBC) from humans (Hu01 to 03; 3 individuals), Rhesus monkey (Rh01 to 03; 3 individuals) and Cynomolgus monkey (Cy01 to 02; 2 individuals) was measured by fluorescence activated cell sorting (FACS).

[2] = molecular target: T2, Cynomolgus monkey glycophorin A on Cynomolgus monkey red blood cells (Cynomolgus monkey); assay: FACS, RBC Cy01
T2 construct: whole, on cells; also called Cyno RBC; Cyno GPA
Protocol: as §1

[3] = molecular target: T2, Cynomolgus monkey glycophorin A on …; assay: FACS, RBC Cy02
Protocol: as §1

[4] = molecular target: T1, human glycophorin A in the red blood …; assay: FACS, RBC Hu01
Protocol: as §1

[5] = molecular target: T1, human glycophorin A in the red blood …; assay: FACS, RBC Hu02
Protocol: as §1

[6] = molecular target: T1, human glycophorin A in the red blood …; assay: FACS, RBC Hu03
Protocol: as §1

dog red blood cells = molecular target: T3, dog red blood cells (dog); assay: FACS, Dog RBC
T3 construct: also called dog RBC

[7] = molecular target: T1, human glycophorin A in the red blood …; assay: FACS, Human RBC
[8] = molecular target: T4, Rhesus monkey glycophorin A on Rhesus monkey red blood cells (Rhesus monkey, UniProt A0A1D5Q349 20-150); assay: FACS, Rhesus RBC
T4 construct: whole, on cells; also called Rhesus RBC; monkey GPA
T4 sequence: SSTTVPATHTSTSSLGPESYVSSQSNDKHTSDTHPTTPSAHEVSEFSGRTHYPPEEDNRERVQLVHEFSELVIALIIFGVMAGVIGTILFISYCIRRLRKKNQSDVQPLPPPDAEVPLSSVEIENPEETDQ

[9] = molecular target: T2, Cynomolgus monkey glycophorin A on …; assay: FACS, Cyno #1 RBC
[10] = molecular target: T2, Cynomolgus monkey glycophorin A on …; assay: FACS, Cyno #2 RBC
[11] = molecular target: T2, Cynomolgus monkey glycophorin A on …; assay: FACS, Cyno #3 RBC

Binder | binding result [1] | fluorescence intensity [2] | fluorescence intensity [3] | fluorescence intensity [4] | fluorescence intensity [5] | fluorescence intensity [6] | FACS signal (dog red blood cells) [Flourescent units] | FACS signal [7] [Flourescent units] | FACS signal [8] [Flourescent units] | FACS signal [9] [Flourescent units] | FACS signal [10] [Flourescent units] | FACS signal [11] [Flourescent units]
Hu6C12-17 (antibody, V domains shown, IgG format; VH.1 + Vk.1b) VH: EVQLVQSGAEVKKPGASVKVSCKASGYTFTTYTIHWVRQAPGQGLEWMGYINPSSDYTRYNPKFKDRVTMTTDTSTSTAYMELRSLRSDDTAVYYCARGTRDYWGQGTTVTVSS VL: DIQLTQSPSFLSASVGDRVTITCSAASSVSYIYWFQQKPGKAPKLLIYSTSTLPSGVPSRFSGSGSGTEYTLTISSLQPEDFATYYCHQRNSFPFTFGQGTKLEIK | no binding | 104 | 127 | 3 | 3 | 2 |  |  |  |  |  | 
Hu6C12-18 (antibody, V domains shown, IgG format; VH.1a + Vk.1b) VH: EVQLVQSGAEVKKPGASVKVSCKASGYTFTTYTIHWVRQAPGQGLEWMGYINPSSDYTRYNPKFKDRVTMTTDTSTSTAYMELRSLRSDDTAVYYCQRGTRDYWGQGTTVTVSS VL: DIQLTQSPSFLSASVGDRVTITCSAASSVSYIYWFQQKPGKAPKLLIYSTSTLPSGVPSRFSGSGSGTEYTLTISSLQPEDFATYYCHQRNSFPFTFGQGTKLEIK | no binding | 741 | 876 | 3 | 3 | 2 |  |  |  |  |  | 
12C6 scFv-Fc (Fc fusion, as m18) scFv: QVQLQQSGAELARPGASVKMSCKASGYTFTRYSMHWVKQRPGQGLEWIGYINPGTYSTNYNQKFKDRATLTADKSSSTAYMQLNSLTSEDSAVYYCQTGTRDYWGQGTTLTVSSGGGGSGGGGSGGGGSQIVLTQSPPIMSASPGEKVTITCSAASSVSYIYWFQQKPGTSPKLWIYSTSSLPSGVPTRFSGSGSGTSYSLTISRMEAEDAATYYCHQRSSYPFTFGSGTKLEIRGGGGAGGGGCKPCICTVPEVSSVFIFPPKPKDVLTITLTPKVTCVVVDISKDDPEVQFSWFVDDVEVHTAQTQPREEQFNSTFRSVSELPIMHQDWLNGKEFKCRVNSAAFPAPIEKTISKTKGRPKAPQVYTIPPPKEQMAKDKVSLTCMITDFFPEDITVEWQWNGQPAENYKNTQPIMDTDGSYFVYSKLNVQKSNWEAGNTFTCSVLHEGLHNHHTEKSLSHSPGK |  |  |  |  |  |  | 1 | 2900 | 1860 | 2 | 956 | 580
10F1 scFv-Fc (Fc fusion, as m18) scFv: QVQLLQSGAELARPGASVRISCKASGYTFTRYAMHWVKQRPGQGLEWIGYINPGTFSTNYNQKFKDRATLTADKSSSTAYMQLNSLTSEDSAVYYCQTGTRDYWGQGTTLTVSSGGGGSGGGGSGGGGSQIVLTQSPPIMSASPGEKVTITCSAASSVSYIYWFQQKPGTSPKLWIYSTSSLPSGVPTRFSGSGSGTSYSLTISRMEAEDAATYYCHQRSSYPFTFGSGTKLEIRGGGGAGGGGCKPCICTVPEVSSVFIFPPKPKDVLTITLTPKVTCVVVDISKDDPEVQFSWFVDDVEVHTAQTQPREEQFNSTFRSVSELPIMHQDWLNGKEFKCRVNSAAFPAPIEKTISKTKGRPKAPQVYTIPPPKEQMAKDKVSLTCMITDFFPEDITVEWQWNGQPAENYKNTQPIMDTDGSYFVYSKLNVQKSNWEAGNTFTCSVLHEGLHNHHTEKSLSHSPGK |  |  |  |  |  |  | 1 | 2980 | 2070 | 2 | 842 | 647
6C12 scFv-Fc (Fc fusion, scFv fused to a mouse Fc fragment; printed order VH-linker-VL-Fc) scFv: RVQLQQSGAELARPGASVKMSCKASGYTFTTYTIHWVKQKTGQGLEWIGYINPSSDYTRYNPKFKDKATLTTDKSSSTAYMKLNSLASDDSAVYYCQTGTRDYWGQGTTLTVSSGGGGSGGGGSGGGGSQIVLTQSPPIMSASPGEKVTMTCSAASSVSYIYWFQQKPGTSPKLWIYSTSTLPSGVPTRFSGSGSGTSYSLTISRMEAEDAATYYCHQRNSFPFTFGSGTKLEIRGGGGAGGGGCKPCICTVPEVSSVFIFPPKPKDVLTITLTPKVTCVVVDISKDDPEVQFSWFVDDVEVHTAQTQPREEQFNSTFRSVSELPIMHQDWLNGKEFKCRVNSAAFPAPIEKTISKTKGRPKAPQVYTIPPPKEQMAKDKVSLTCMITDFFPEDITVEWQWNGQPAENYKNTQPIMDTDGSYFVYSKLNVQKSNWEAGNTFTCSVLHEGLHNHHTEKSLSHSPGK |  |  |  |  |  |  | 1 | 2040 | 1450 | 2 | 876 | 602
7G4 scFv-Fc (Fc fusion, as m18) scFv: QVQLKESGPGLVAPSQSLSITCTVSGFSLTRFGISWVRQPPGKGLEWMGVIWGDGSTDYHSALISRLSITKDNSKSQVFFRLNSLQSDDSATYYCARSFGMDYWGQGTSVTVSSGGGGSGGGGSGGGGSNIMMTQSPSSLAVSAGEKVTMSCKSSQSILNSSNQKNYLAWYQQKPGQSPKLLIYWASTRESGVPDRFTGSGSGTDFTLTISSVQAEDLAVYYCHQYFSSRTFGGGTKLEIKGGGGAGGGGCKPCICTVPEVSSVFIFPPKPKDVLTITLTPKVTCVVVDISKDDPEVQFSWFVDDVEVHTAQTQPREEQFNSTFRSVSELPIMHQDWLNGKEFKCRVNSAAFPAPIEKTISKTKGRPKAPQVYTIPPPKEQMAKDKVSLTCMITDFFPEDITVEWQWNGQPAENYKNTQPIMDTDGSYFVYSKLNVQKSNWEAGNTFTCSVLHEGLHNHHTEKSLSHSPGK |  |  |  |  |  |  | 1 | 1410 | 1 | 1 | 1 | 1
8F9 scFv-Fc (Fc fusion, as m18) scFv: QVQLQQSGAELARPGASVKMSCKASGYTFTSYSIHWIKQRPGQSLEWIGYINPNSDYANYNQKFKDKATLTTDKSSTTAYMQLSSLTTDDSAVYYCQTGTRDYWGQGTTLTVSSGGGGSGGGGSGGGGSHIVLTQSPAIMSASPGEKVTIICSARSSVSYMYWFQQKPGTSPKLWIYATSSLPSGVPARFSGSGSGTSYSLTISRMEAEDAATYYCHQRSSYPYTFGSGTKLEIKGGGGAGGGGCKPCICTVPEVSSVFIFPPKPKDVLTITLTPKVTCVVVDISKDDPEVQFSWFVDDVEVHTAQTQPREEQFNSTFRSVSELPIMHQDWLNGKEFKCRVNSAAFPAPIEKTISKTKGRPKAPQVYTIPPPKEQMAKDKVSLTCMITDFFPEDITVEWQWNGQPAENYKNTQPIMDTDGSYFVYSKLNVQKSNWEAGNTFTCSVLHEGLHNHHTEKSLSHSPGK |  |  |  |  |  |  | 1 | 2340 | 1770 | 2 | 761 | 582
13G7 scFv-Fc (Fc fusion, as m18) scFv: RVQLQQSGAELARPGASVKMSCKASGYTFTNYAMHWVKQRPGQGLEWIGYINPKSDNTNYNQKFKDKATLTTDKSSATAYMQLSSLTSDDSAVYYCQTGTRDYWGQGTTLTVSSGGGGSGGGGSGGGGSHIVLTQSPAIMSASPGEKVTIFCSASSSITYVYWFQQKPGTSPKLWIYSTSSLPSGVPARFSGSGSGTSYSLTISRMEAEDAATYYCHQRNSYPFTFGSGTKLEIKGGGGAGGGGCKPCICTVPEVSSVFIFPPKPKDVLTITLTPKVTCVVVDISKDDPEVQFSWFVDDVEVHTAQTQPREEQFNSTFRSVSELPIMHQDWLNGKEFKCRVNSAAFPAPIEKTISKTKGRPKAPQVYTIPPPKEQMAKDKVSLTCMITDFFPEDITVEWQWNGQPAENYKNTQPIMDTDGSYFVYSKLNVQKSNWEAGNTFTCSVLHEGLHNHHTEKSLSHSPGK |  |  |  |  |  |  | 1 | 2760 | 1860 | 2 | 981 | 632
